Measured values published in the RNAGym collection of RNA variant scans (doi:10.1073/pnas.2313332121).
Variants at the floor of the assay were thinned out.

B1: TPR 5TU (parent)
chain: GGAUCUUCUCGAUCUAACAAAAAAGACAAAUCUGCCACAAAGCUUGAGAGCAUCUUCGGAUGCAGAGGCGGCAGCCUUCGGUGGCGCGAUAGCGCCAACGUUCUCAACUAUGACACGCAAAACGCGUGCUCCGUUGAAUGGAGUUUAUCAUG

Variants of: B1
Experiment: polymerase ribozyme fitness, log enrichment relative to wild type (log ratio); higher = more active; in vitro selection for triplet polymerase activity
How it was run: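 Only genotypes with ≥10 input reads and ≥1 read per output were kept after Illumina sequencing of input and output libraries. These libraries were PCR-built, transcribed mutants of each subunit of a heterodimeric triplet polymerase ribozyme, each put through one triplicate in vitro selection round with frozen incubation at −7 °C, gel excision of extended constructs, streptavidin-bead capture and RT-PCR. Fitness is a logarithmic ratio of genotype enrichment to wild-type enrichment, from inverse-variance-weighted replicate averages, with the logarithm in base 2.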

U33C C43U G126U and C35A C76A C93A U148C cannot be ordered by “polymerase ribozyme fitness (log ratio)” value: ≤ -4.2 for the first, ≤ -4.2 for the second.

U33G C87A A142U and U33G A52G A73G G92C A107U C114U C125U U134C G141C cannot be ordered by “polymerase ribozyme fitness (log ratio)” value: ≤ -4.2 for the first, ≤ -4.2 for the second.

G34C A41G C54A U135C U145G and C32U G71C C103G A113G A121G U134C cannot be ordered by “polymerase ribozyme fitness (log ratio)” value: ≤ -4.2 for the first, ≤ -4.2 for the second.

Going from U33G A39U C116A U130G to U33G G48A G59A G84A G88A C149U, the “polymerase ribozyme fitness (log ratio)” value falls from -3.98 to ≤ -4.2.

First: C32U G46A A60U G83C C96A G141A
Second: G34U A39U C43A C85U G117A
The “polymerase ribozyme fitness (log ratio)” value of the first is lower: ≤ -4.2 for the first, -3.98 for the second.

Compared with G34C C76A C95U A142C, G34U C96G is higher in “polymerase ribozyme fitness (log ratio)” value: ≤ -4.2 for the first, -2.91 for the second.

G34A G58A U90A G94A U109G and G34A C79U A107C C108G C116G cannot be ordered by “polymerase ribozyme fitness (log ratio)” value: ≤ -4.2 for the first, ≤ -4.2 for the second.

U33G U44A A142G and G34A C36A A137G cannot be ordered by “polymerase ribozyme fitness (log ratio)” value: ≤ -4.2 for the first, ≤ -4.2 for the second.

Compared with U33C C54U C96U A107C, C32G U55A is higher in “polymerase ribozyme fitness (log ratio)” value: ≤ -4.2 for the first, -3.78 for the second.

Going from G34U C54U U78G G83A C108G to U33C C54A G83C C108G U146A C149A, the “polymerase ribozyme fitness (log ratio)” value falls from -4.13 to ≤ -4.2.

Going from G34A C85U U101G to U33A G50C A52C C87A C96U C105U U127G U144A, the “polymerase ribozyme fitness (log ratio)” value falls from -3.5 to ≤ -4.2.

Going from C35A A89U U90G C99U U144G to G34C U139G, the “polymerase ribozyme fitness (log ratio)” value rises from ≤ -4.2 to -3.21.

U33G C54A G86A C87G A119U A122U G143C A147C and U33A C57U C79G A89U A97G cannot be ordered by “polymerase ribozyme fitness (log ratio)” value: ≤ -4.2 for the first, ≤ -4.2 for the second.

Going from C32G G92A U111G to U33A A91C, the “polymerase ribozyme fitness (log ratio)” value falls from -4.13 to ≤ -4.2.

U33A A91G and G34C A39C U55A A60U A73U U146G cannot be ordered by “polymerase ribozyme fitness (log ratio)” value: ≤ -4.2 for the first, ≤ -4.2 for the second.

C32U G62A C76G G84U C116U G140A C149U and U33G G34U cannot be ordered by “polymerase ribozyme fitness (log ratio)” value: ≤ -4.2 for the first, ≤ -4.2 for the second.

C32U A52G U77G A97C U144A and G34C U55G G65A cannot be ordered by “polymerase ribozyme fitness (log ratio)” value: ≤ -4.2 for the first, ≤ -4.2 for the second.

U33A C75G C76A A142G and C32G G70C cannot be ordered by “polymerase ribozyme fitness (log ratio)” value: ≤ -4.2 for the first, ≤ -4.2 for the second.

Going from U33C A39U G62A G86A A107U to C32U C36A U55G C93G G133U G141U, the “polymerase ribozyme fitness (log ratio)” value rises from ≤ -4.2 to -4.01.

First: G34A A91G
Second: C35A C95A A107G G143U
The “polymerase ribozyme fitness (log ratio)” value of the first is higher: -3.57 for the first, -3.95 for the second.

U33G U44A G46C A73G C76A C95U G133U and C32U A39G A40C C54A G94U A142U cannot be ordered by “polymerase ribozyme fitness (log ratio)” value: ≤ -4.2 for the first, ≤ -4.2 for the second.

U33G U55C C76U G86U C105A C116U and G34U A37U U55A G136U cannot be ordered by “polymerase ribozyme fitness (log ratio)” value: ≤ -4.2 for the first, ≤ -4.2 for the second.

Compared with C32U U101A, C32U G83U G126A is lower in “polymerase ribozyme fitness (log ratio)” value: -3.76 for the first, -4.19 for the second.

Compared with C32U C103U, C32U G81U G84A G94C is lower in “polymerase ribozyme fitness (log ratio)” value: -2.66 for the first, -3.46 for the second.

C35A C54G C72A C75A G84C C114U G133U A138G and U33C C87G G152A cannot be ordered by “polymerase ribozyme fitness (log ratio)” value: ≤ -4.2 for the first, ≤ -4.2 for the second.

G34U A39U U53A A64U C116U U146G and U33A G86A A142G cannot be ordered by “polymerase ribozyme fitness (log ratio)” value: ≤ -4.2 for the first, ≤ -4.2 for the second.

First: U33G G80C G92A C131A U151A
Second: U33G G86U
The “polymerase ribozyme fitness (log ratio)” value of the first is lower: -4.15 for the first, -3.95 for the second.

Going from C35A G65U G83C C85A G124A to C32U C118U G133C, the “polymerase ribozyme fitness (log ratio)” value rises from ≤ -4.2 to -2.99.

G34U A40G U55G U56A U101A U102G G126A and C32U C87U C103G cannot be ordered by “polymerase ribozyme fitness (log ratio)” value: ≤ -4.2 for the first, ≤ -4.2 for the second.

C32U C85U A89C A138C and U33A A49C C76U G80U C149G cannot be ordered by “polymerase ribozyme fitness (log ratio)” value: ≤ -4.2 for the first, ≤ -4.2 for the second.

U33A C96A and C35A U77C G83A A106C G126A U134G cannot be ordered by “polymerase ribozyme fitness (log ratio)” value: ≤ -4.2 for the first, ≤ -4.2 for the second.

C32U G42A A60C A66G A73G C79A G84A C93U C96G A97U C103G and C35A G67U G94U cannot be ordered by “polymerase ribozyme fitness (log ratio)” value: ≤ -4.2 for the first, ≤ -4.2 for the second.

Going from G34A C69A A106G A147C to C32U U61A G74U C99G, the “polymerase ribozyme fitness (log ratio)” value falls from -3.75 to ≤ -4.2.

Compared with U33G G67U C85G C96G A122G G140A, U33G G42C G88U G124U C125G is higher in “polymerase ribozyme fitness (log ratio)” value: ≤ -4.2 for the first, -3.86 for the second.

G34U U77G C87A A113C and C32G G59C C87G cannot be ordered by “polymerase ribozyme fitness (log ratio)” value: ≤ -4.2 for the first, ≤ -4.2 for the second.

C35A A66G C87U U127C and C35A U44A G70C C76U C103G U145G cannot be ordered by “polymerase ribozyme fitness (log ratio)” value: ≤ -4.2 for the first, ≤ -4.2 for the second.

Going from U33G U61A to G34C C36A A91C C96U C123G G140A, the “polymerase ribozyme fitness (log ratio)” value falls from -3.72 to -4.15.

First: C32G U146A
Second: U33G G46C G71A U78G U90G A110C U127C G141C
The “polymerase ribozyme fitness (log ratio)” value of the first is higher: -3.88 for the first, ≤ -4.2 for the second.

U33C C35G C36G G50C G94U and U33C C63U C99U A142G cannot be ordered by “polymerase ribozyme fitness (log ratio)” value: ≤ -4.2 for the first, ≤ -4.2 for the second.

Going from G34A A40U U45C C69A C76A C87U G94A A106G A122U G124C U151A to U33G A73G, the “polymerase ribozyme fitness (log ratio)” value rises from ≤ -4.2 to -0.513.

C35A C76A C93U A113U U130G A147G and C32U C85A C99G G133C U139G cannot be ordered by “polymerase ribozyme fitness (log ratio)” value: ≤ -4.2 for the first, ≤ -4.2 for the second.

For C32U C96G A142U, the “polymerase ribozyme fitness (log ratio)” value was -3.35.
